The target in this test is FITC-labelled type I collagen (UniProt P02453).
Sequence of UniProt P02453 (P02453 23-1217, chain 1 of 2): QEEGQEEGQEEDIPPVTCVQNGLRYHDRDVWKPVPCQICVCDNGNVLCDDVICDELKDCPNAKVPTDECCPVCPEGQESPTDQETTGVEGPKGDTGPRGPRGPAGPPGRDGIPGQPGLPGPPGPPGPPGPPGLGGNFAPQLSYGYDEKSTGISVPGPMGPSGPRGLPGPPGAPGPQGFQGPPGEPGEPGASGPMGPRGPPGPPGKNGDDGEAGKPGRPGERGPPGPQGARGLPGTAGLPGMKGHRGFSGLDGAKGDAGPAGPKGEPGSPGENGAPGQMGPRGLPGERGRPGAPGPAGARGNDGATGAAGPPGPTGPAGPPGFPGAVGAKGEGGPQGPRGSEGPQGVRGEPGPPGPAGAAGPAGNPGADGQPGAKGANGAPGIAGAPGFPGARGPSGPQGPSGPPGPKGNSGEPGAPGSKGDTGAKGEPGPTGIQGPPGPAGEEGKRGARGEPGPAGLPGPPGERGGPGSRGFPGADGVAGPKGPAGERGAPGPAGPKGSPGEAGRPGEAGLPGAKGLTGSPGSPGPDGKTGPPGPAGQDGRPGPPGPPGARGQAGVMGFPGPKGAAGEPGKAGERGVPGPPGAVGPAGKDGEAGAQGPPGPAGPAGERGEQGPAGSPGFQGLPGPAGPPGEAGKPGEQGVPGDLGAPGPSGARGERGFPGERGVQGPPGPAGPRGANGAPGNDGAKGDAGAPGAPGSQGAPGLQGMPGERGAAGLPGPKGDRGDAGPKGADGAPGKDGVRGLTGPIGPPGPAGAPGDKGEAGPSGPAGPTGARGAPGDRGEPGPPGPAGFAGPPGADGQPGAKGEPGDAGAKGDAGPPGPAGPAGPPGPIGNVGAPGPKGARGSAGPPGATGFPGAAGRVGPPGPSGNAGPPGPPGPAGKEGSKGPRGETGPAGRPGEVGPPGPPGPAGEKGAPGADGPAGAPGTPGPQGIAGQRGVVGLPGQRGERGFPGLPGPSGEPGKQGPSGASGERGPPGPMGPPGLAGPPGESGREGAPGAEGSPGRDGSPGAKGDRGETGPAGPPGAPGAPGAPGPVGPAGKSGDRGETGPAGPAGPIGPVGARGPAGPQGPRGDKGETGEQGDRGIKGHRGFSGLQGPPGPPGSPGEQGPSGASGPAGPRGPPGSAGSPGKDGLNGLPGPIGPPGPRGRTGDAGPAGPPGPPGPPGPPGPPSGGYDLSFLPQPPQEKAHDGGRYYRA
Sequence of UniProt P02453 (P02465 80-1117, chain 2 of 2, further chain): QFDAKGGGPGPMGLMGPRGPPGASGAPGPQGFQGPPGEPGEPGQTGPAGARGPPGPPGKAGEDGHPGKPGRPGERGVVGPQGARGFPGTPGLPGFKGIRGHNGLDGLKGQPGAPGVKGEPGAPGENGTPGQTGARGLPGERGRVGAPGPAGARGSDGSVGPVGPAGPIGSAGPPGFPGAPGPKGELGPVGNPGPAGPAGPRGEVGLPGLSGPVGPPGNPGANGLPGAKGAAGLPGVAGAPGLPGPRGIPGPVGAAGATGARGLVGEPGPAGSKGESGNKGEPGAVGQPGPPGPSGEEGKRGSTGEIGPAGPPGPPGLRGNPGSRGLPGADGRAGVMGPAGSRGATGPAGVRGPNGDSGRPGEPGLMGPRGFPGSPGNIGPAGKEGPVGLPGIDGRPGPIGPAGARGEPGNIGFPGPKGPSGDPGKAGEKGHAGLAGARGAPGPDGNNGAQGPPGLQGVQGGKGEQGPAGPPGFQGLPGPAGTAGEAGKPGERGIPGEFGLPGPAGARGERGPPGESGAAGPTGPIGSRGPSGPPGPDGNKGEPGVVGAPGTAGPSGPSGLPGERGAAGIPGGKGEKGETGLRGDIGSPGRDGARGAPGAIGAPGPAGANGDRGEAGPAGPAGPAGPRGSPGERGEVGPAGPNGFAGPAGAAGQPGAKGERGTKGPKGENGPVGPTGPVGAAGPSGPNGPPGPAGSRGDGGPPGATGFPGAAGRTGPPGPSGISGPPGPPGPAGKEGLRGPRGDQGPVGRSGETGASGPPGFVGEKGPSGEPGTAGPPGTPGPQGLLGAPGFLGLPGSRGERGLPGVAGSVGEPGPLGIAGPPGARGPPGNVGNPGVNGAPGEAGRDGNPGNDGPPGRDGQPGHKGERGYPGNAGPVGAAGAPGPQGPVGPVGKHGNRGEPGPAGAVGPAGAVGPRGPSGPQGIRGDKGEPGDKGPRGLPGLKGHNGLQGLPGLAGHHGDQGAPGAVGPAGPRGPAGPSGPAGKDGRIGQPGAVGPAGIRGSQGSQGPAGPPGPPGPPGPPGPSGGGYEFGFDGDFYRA

Consider “recombinant 62-kDa collagenase from Grimontia hollisae (enzyme)”, for which the Km of hydrolysis of FITC-labelled type I collagen (Lineweaver-Burk plot; 50 mM Tris-HCl, 0.2 M NaCl, 5 mM CaCl2, pH 7.5, 30 °C) amounted to 0.00109 mM.

“purified collagenase product from C. histolyticum”: the Km of hydrolysis of FITC-labelled type I collagen (Lineweaver-Burk plot; 50 mM Tris-HCl, 0.2 M NaCl, 5 mM CaCl2, pH 7.5, 30 °C) came to 0.00189 mM.

Source of the values: paper PMC7054364.
